{"source": "paper PMC9915745", "about": "(ArXiv, 2023)", "proteins": {"B1": {"name": "E. coli periplasmic chaperone HdeA, wild type (natural protein)", "chain": "ADAQKAADNKKPVNSWTCEDFLAVDESFQPTAVGFAEALNNKDKPEDAVLDVQGIATVTPAIVQACTQDKQANFKDKVKGEWDKIKKDM", "modifications": "native disulfide between Cys18 and Cys66"}}, "molecular_target": "the molecule itself", "experiment": "SEC-MALS", "data": [{"protein": "B1", "values": [{"measurement": "stoichiometry N", "value": 2}]}]}
